Assay results as given in patent US20250002998A1.

Experiments:
[1] = molecular target: feline FAP in formalin fixed, paraffin embedded feline tissue sections (feline); experiment: immunohistochemistry on a formalin fixed, paraffin embedded kidney section of cat #20-01692 with a low level of fibrosis (fibrosis score 1)
[2] = molecular target: feline FAP in formalin fixed, paraffin embedded feline tissue sections (feline); experiment: immunohistochemistry on a formalin fixed, paraffin embedded kidney section of cat #20-00774 with a higher level of fibrosis (fibrosis score 3)
[3] = molecular target: feline FAP in formalin fixed, paraffin embedded feline tissue sections (feline); experiment: immunohistochemistry on a formalin fixed, paraffin embedded kidney section of cat #20-06613 with a higher level of fibrosis (fibrosis score 3)
[4] = molecular target: feline FAP in formalin fixed, paraffin embedded feline tissue sections (feline); experiment: immunohistochemistry on a formalin fixed, paraffin embedded kidney section of cat #20-10270 without fibrosis (fibrosis score 0); the score tells that no FAP was detected in this tissue, not that the antibody fails to bind FAP

FAP score (0-3) [1]: 1
FAP score (0-3) [2]: 2
FAP score (0-3) [3]: 2
FAP score (0-3) [4]: 0
Substance: cross-reactive anti-FAP monoclonal antibody ab207178 from abcam
